Values quoted from earlier work, collected in article PMC11899465.
Where two headings read alike, the source gives them in different places.

Legend:
[1] = target: CD137 (Homo sapiens) (UniProt Q07011)
[2] = target: CD137 (Homo sapiens) (UniProt Q07011); remark: listed apart in the source

Chain of CD137 (Homo sapiens) (Q07011 24-255): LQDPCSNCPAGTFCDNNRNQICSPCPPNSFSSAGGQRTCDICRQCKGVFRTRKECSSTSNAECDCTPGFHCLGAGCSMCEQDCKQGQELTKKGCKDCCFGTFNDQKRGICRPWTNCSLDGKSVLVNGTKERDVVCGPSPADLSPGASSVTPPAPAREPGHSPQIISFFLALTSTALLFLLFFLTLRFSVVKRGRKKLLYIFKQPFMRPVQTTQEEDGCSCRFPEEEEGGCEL
Chain of CD137L (monomer) (P41273 whole entry): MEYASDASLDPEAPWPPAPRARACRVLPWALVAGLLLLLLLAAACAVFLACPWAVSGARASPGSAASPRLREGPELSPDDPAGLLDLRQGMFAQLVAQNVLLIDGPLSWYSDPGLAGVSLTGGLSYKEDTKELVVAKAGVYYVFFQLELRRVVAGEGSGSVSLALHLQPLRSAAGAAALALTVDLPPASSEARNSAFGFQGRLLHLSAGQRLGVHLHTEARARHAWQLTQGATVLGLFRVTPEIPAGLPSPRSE
Chain of CD137L (homotrimer) (P41273 whole entry): as above

Kd [1] [nM]	Kd [2] [nM]	Substance
55.2		CD137L (monomer) (from UniProt P41273)
	1.2	CD137L (homotrimer) (from UniProt P41273)
